Reference: the supplement of paper PMC9170038

System: MS2 coat protein
Experiment: apparent KD of MS2 coat protein; designed switch direction (-1 OFF switch, 1 ON switch): -1; higher = weaker reporter binding
Outline: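 For each design, the apparent KD is the median over clusters of curves fitted to normalised cluster fluorescence. Clusters held RNA switches with common flanks, transcribed on Illumina chips by stalled E. coli RNA polymerase. These were titrated with SNAP-549-labelled MS2 coat protein, doubling from 0.7 or 1.5 nM to 3 µM, without input, with 200 uM small-molecule ligand, or with an oligonucleotide input.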

[1] = Eterna round: R95, input ligand: FMN 200 uM
[2] = Eterna round: R95, input ligand: microRNA oligo, concentration not stated
[3] = Eterna round: R95, input ligand: none
[4] = input ligand: microRNA oligo, concentration not stated

| Sequence | apparent KD of MS2 coat protein [2] [µM] | apparent KD of MS2 coat protein (input ligand: FMN 200 uM) [µM] | apparent KD of MS2 coat protein (input ligand: none) [µM] | also measured |
| --- | --- | --- | --- | --- |
| UUUAAUUUUUUUUUUUUACAAGCUUUUUGCUCGUCUUAUACAUGAGGAUCACCCAUGUGAAUGAGGGAUAAAUUAUC [JMF 39] (puzzle: Sensor v3, turn-off variant 2) | 0.0143 |  |  | apparent KD of MS2 coat protein [1]: 0.0135 µM; apparent KD of MS2 coat protein [3]: 0.0119 µM |
| UUUAAUUUUUUUUUUUUACAAGCUUUUUGCUCGUCUUAUACAUGAGGAUCACCCAUGUGAAUGGGAAAUGAAUUAUC [JMF 96] (puzzle: Sensor v3, turn-off variant 2) | 0.268 |  |  | apparent KD of MS2 coat protein [1]: 0.112 µM; apparent KD of MS2 coat protein [3]: 0.132 µM |
| UUUAAUUUUUUUUUUUUACAAGCUUUUUGCUCGUCUUAUACAUGAGGAUCACCCAUGUGGGUAGGAGGUAAAUUAUC [JMF 72] (puzzle: Sensor v3, turn-off variant 2) | 0.0504 |  |  | apparent KD of MS2 coat protein [1]: 0.0325 µM; apparent KD of MS2 coat protein [3]: 0.0355 µM |
| UUUAAUUUUUUUUUUUUACAAGCUUUUUGCUCGUCUUAUACAUGAGGAUCACCCAUGUGGGUGAAAGAUAGAUUGUC [JMF's solution 3] (puzzle: Sensor v3, turn-off variant 2) | 0.0204 |  |  | apparent KD of MS2 coat protein [1]: 0.0872 µM; apparent KD of MS2 coat protein [3]: 0.0358 µM |
| UUUACAAGCUAUUGAUCCCACAUGAGGAUCACCCAUGUUGCUGCCGUGAGGUAGCUUUUAACAAUUGCUCGUCUUAU [JL TOV1 3.38] (Eterna round: R97, puzzle: Sensor, turn-off variant 1) |  | 0.424 | 0.57 |  |
| UUUACAAGCUUAAGAUCCCACAUGAGGAUCACCCAUGUUGCUGCCGGUGACGGUAGCAUAACUUAUGCUCGUCUUAU [JL TOV1 3.60] (Eterna round: R97, puzzle: Sensor, turn-off variant 1) |  | 0.177 | 0.188 |  |
| UUUAGUGGUAAGGAUAUCCUUGAGAAAGAAAGAGGAGAAGGUACCACAUGAGGAUCACCCAUGUGGCUCUUUUA [jl-ex6-4.58 Nando mod] (Eterna round: R97, puzzle: Exclusion 6) |  | 0.0327 | 0.0182 |  |
| UUUAGUUCAGGAUAUGUAGAUUUUAACAUGAGGAUCACCCAUGUAGAUCCUGAAUUAACUACAGAAGGGAACAUUG [Exclusion 5: 2:b] (puzzle: Exclusion 5) | 0.0182 |  |  | apparent KD of MS2 coat protein [1]: 0.0501 µM; apparent KD of MS2 coat protein [3]: 0.0165 µM |
| UUUAUAAUUUCAAUCUUCGCUGGCAAACUUACGCCAGCCACAUGAGGAUCACCCAUGUUUUUUGUUCGUUUUAUUCU [Xeinzarace] (puzzle: Sensor v3, turn-off variant 2) | 0.0498 |  |  | apparent KD of MS2 coat protein [1]: 0.0188 µM; apparent KD of MS2 coat protein [3]: 0.0226 µM |
| UUUCAUCAUGUAGGAUAUGCGUGGCGAAGCUAUGCAGAAGGACAUGAGGAUCACCCAUGUUCUAGCGUCUGCGUACAGAUGCUA [JL ENG1 1.35] (Eterna round: R96, puzzle: Exclusion NG 1) |  | 0.226 | 0.0524 | apparent KD of MS2 coat protein [4]: 0.0451 µM |
| UUUCGGCAUGUAGGAUAUGGGUCCGAUUAGGAUUUAGAAGGACAUGAGGAUCACCCAUGUGCAUUUAAUUGGUCAUUACCUUUU [EXclNG1-LROPPY10] (Eterna round: R96, puzzle: Exclusion NG 1) |  |  |  | apparent KD of MS2 coat protein [4]: 0.0465 µM |
| UUUCUACAUGUAGGAUAUGCGUGGCGAAGCUAUGCAGAAGGACAUGAGGAUCACCCAUGUUUUAGCGUCUGCGUACAGAUGCGU [JL ENG1 1.49] (Eterna round: R96, puzzle: Exclusion NG 1) |  | 0.0609 | 0.0206 | apparent KD of MS2 coat protein [4]: 0.0162 µM |
| UUUCUGUGAGGAUAUCAGUAGUAAAUAAAUAAAAUUACUACUGAGAAGGCACAUGAGGAUCACCCAUGUUCCUU [salish99_ex3_r3_093] (Eterna round: R96, puzzle: Exclusion 4) |  | 0.0351 | 0.0165 | apparent KD of MS2 coat protein [4]: 0.0129 µM |
| UUUCUGUGAGGAUAUCAGUAGUAAAUAAAUAAAAUUACUACUGAGAAGGCACAUGAGGAUCACCCAUGUUCCUU [salish99_ex3_r3_093] (puzzle: Exclusion 4) | 0.0131 |  |  |  |
| UUUGGGCCUGUGAGGAUAUCGGGUUUGAAAGGGCCCGAGAAGGCACAUGAGGAUCACCCAUGUAAGGGCCCGGG [-32.7, -30.6 kcal, A 23%, 5a-5abis] (Eterna round: R97, puzzle: Brourd's mod of Exclusion 4) |  | 0.0173 | 0.0195 |  |
| UUUGGUUUGCGAGGAUAUGCUUUUAGUAAGUUAGCAGAAGGCGCGUUACAUAGAACCUCUUGUUACAUGAGGAUCACCCAUGUU [JR_ExcNG1_Sub037] (Eterna round: R96, puzzle: Exclusion NG 1) |  |  |  | apparent KD of MS2 coat protein [4]: 0.0773 µM |
| UUUUAACAUGAGGAUCACCCAUGUGAGGAUAUCGAAAUUUAUAUUAAUAUUAAUAUUUCGAGAAGGCACAUUUU [JMF 25] (puzzle: Exclusion 1) | 0.125 |  |  |  |

| Sequence | apparent KD of MS2 coat protein [2] [µM] | apparent KD of MS2 coat protein (input ligand: FMN 200 uM) [µM] | apparent KD of MS2 coat protein (input ligand: none) [µM] | also measured |
| --- | --- | --- | --- | --- |
| UUUUAACAUGAGGAUCACCCAUGUGAGGAUAUCGAAAUUUAUAUUAAUAUUAAUUAAUCGAGAAGGCACAUUUU [JMF 28] (puzzle: Exclusion 1) | 0.0974 |  |  |  |
| UUUUAACAUGAGGAUCACCCAUGUGAGGAUAUCGAAAUUUAUAUUAAUAUUAUUAUAACGAGAAGGCACAUUUU [JMF 39] (puzzle: Exclusion 1) | 0.0622 |  |  |  |
| UUUUAACAUGAGGAUCACCCAUGUGAGGAUAUCGAAAUUUAUAUUAAUAUUAUUUAUACGAGAAGGCACAUUUU [JMF 46] (puzzle: Exclusion 1) | 0.0649 |  |  |  |
| UUUUAACAUGAGGAUCACCCAUGUGAGGAUAUCGAAAUUUAUAUUUAUAUUAAUAUAACGAGAAGGCACAUUUU [JMF 79] (puzzle: Exclusion 1) | 0.0582 |  |  |  |
| UUUUAACAUGAGGAUCACCCAUGUGAGGAUAUCGAAAUUUAUAUUUAUAUUAAUUAAUCGAGAAGGCACAUUUU [JMF 84] (puzzle: Exclusion 1) | 0.15 |  |  |  |
| UUUUACAAGCCAGAUCCUCACAUGAGGAUCACCCAUGUGCUCGUCUGUUUUCGCACUAUCACGUUUGUGAUAGUGCU [Level Boss var2-10] (puzzle: Sensor v3, turn-off variant 1) | 0.0129 |  |  | apparent KD of MS2 coat protein [1]: 0.162 µM; apparent KD of MS2 coat protein [3]: 0.288 µM |
| UUUUACAAGCUAAGAUCCUACAUGAGGAUCACCCAUGUGGUCCGGUGACGUGAGUCACCGGACUUAGCUCGUCUUGC [salish99_S_TOV1_R5_088] (Eterna round: R97, puzzle: Sensor, turn-off variant 1) |  | 0.0362 | 0.0437 |  |
| UUUUACGUAGGAUAUACAUUUUUUUUAUUAUUUUCAUUAUUACAUGAGGAUCACCCAUGUAGAAGGACGAUUUU [My Design] (puzzle: Exclusion 2) | 0.025 |  |  |  |
| UUUUAGCAAGCGAGAAUUAACAUGAGGAUCACCCAUGUGCAUCCAGAAUUACUUUUAGAACAAGCUCGUCUUAUAUA [JR_STOV1_v2_Sub081] (Eterna round: R97, puzzle: Sensor, turn-off variant 1) |  | 0.353 | 0.401 |  |
| UUUUGACAUGAGGAUCACCCAUGUGAGGAUAUGGCUUGUGGCGCGUCUGUGUGGCGGGUUAGAAGGCGCGUGCG [-24.6, -21.7 kcal, A 16%] (Eterna round: R97, puzzle: Exclusion 1) |  | 0.0308 | 0.0383 |  |
| UUUUGCUCAGGAUAUACAUGAGGAUCACCCAUGUAUAUUGAAGAUAAUACAUGGGAAUGUAGAAGGGAGCUCAU [Omei Ex3 Pseudoloop 19] (Eterna round: R97, puzzle: Exclusion 3) |  | 0.0735 | 0.156 |  |
| UUUUGGCAGGCAAUUAUUAACAUGAGGAUCACCCAUGUGCAUCCAAAAUUACUUUUAGAUCAAGCUCGUCUUAUAUA [JR_STOV1_Sub087] (Eterna round: R97, puzzle: Sensor, turn-off variant 1) |  | 0.0299 | 0.0351 |  |
| UUUUGGCAGGUAAUUAUUAACAUGAGGAUCACCCAUGUGCAUCCAAAAUUACUUUUAGAUCAAGCUCGUCUUAUAUA [JR_STOV1_Sub088] (Eterna round: R97, puzzle: Sensor, turn-off variant 1) |  | 0.034 | 0.0352 |  |
| UUUUGUUUGCGAGGAUAUGCUUUUAGUAAGUUAGCAGAAGGCGCGUUACAUAGAACCUCUUGUUACAUGAGGAUCACCCAUGUU [JR_ExcNG1_Sub036] (Eterna round: R96, puzzle: Exclusion NG 1) |  | 0.179 | 0.168 | apparent KD of MS2 coat protein [4]: 0.11 µM |
| UUUUUAAAUGAAGGAUAUACUUAACAUGAGGAUCACCCAUGUGGUGUUGUGAGUGAGUGAGUUUAGUAGAAGGUCAAUUCUUUU [JMF's solution 86] (Eterna round: R96, puzzle: Exclusion NG 2) |  | 0.619 | 0.334 | apparent KD of MS2 coat protein [4]: 0.3 µM |
| UUUUUACAUGAGGAUCACCCAUGUCAGGAUAUGUUUAUAUUUUAUUAUUUUAUUUUUUACAGAAGGGACUAUUA [My solution] (puzzle: Exclusion 1) | 0.123 |  |  |  |
